In US20220127332A1 (CURA THERAPEUTICS, published 2022):
One block for each molecule: values may come before it.

How the values were obtained:
active TGFβ3 = active TGFβ3 (UniProt P10600); test: blocking of active TGFβ3 (1 ng/mL) in solution, 30 min in PBS; free TGFβ3 by ELISA
active TGFβ1 [1] = molecular target: T1, active TGFβ1 (human, UniProt P01137 279-390); test: cell-based or functional assay
T1 construct: mature; also called TGFb1; human active TGFβ1

active TGFβ1 [2] = molecular target: T1, active TGFβ1; test: blocking of active TGFβ1 (1 ng/mL) in solution, 30 min in PBS; free TGFβ1 by ELISA

T1 sequence (P01137 279-390 limits assumed): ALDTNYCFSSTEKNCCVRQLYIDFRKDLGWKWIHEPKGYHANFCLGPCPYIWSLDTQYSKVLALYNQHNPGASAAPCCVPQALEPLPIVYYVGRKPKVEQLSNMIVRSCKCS
Sequence of active TGFβ3 (P10600 301-412): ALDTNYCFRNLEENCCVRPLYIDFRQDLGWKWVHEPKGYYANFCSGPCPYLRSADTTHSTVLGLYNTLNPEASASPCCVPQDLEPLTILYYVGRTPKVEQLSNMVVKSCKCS

IC50 (active TGFβ3): 3.6 nM
IC50 values for the inhibition of TGFb1-dependent suppression of CTLL-2 cell proliferation (active TGFβ1 [1]): 0.12
IC50 (active TGFβ1 [2]): 1.29 nM
Molecule: FIST (monovalent FIST; fusion protein of an IL-2 polypeptide and a single sTBRII receptor polypeptide)

IC50 (active TGFβ1 [2]): 0.02 nM
B1: sTBRII isoform 2 (long) (receptor, UniProt P37173-2 23-191, looked up)
chain: TIPPHVQKSDVEMEAQKDEIICPSCNRTAHPLRHINNDMIVTDNNGAVKFPQLCKFCDVRFSTCDNQKSCMSNCSITSICEKPQEVCVAVWRKNDENITLETVCHDPKLPYHDFILEDAASPKCIMKEKKKPGETFFMCSCSSDECNDNIIFSEEYNTSNPDLLLVIFQ
notes: also called TbRII (isoform II); TβRII isoform 2
